How the values were obtained:
[1] = biological target: human somatostatin receptor SSTR1 (human); experiment: radioligand binding to CHO cells transfected with human SSTR1, gamma counting
[2] = biological target: mouse somatostatin receptor SSTR2 (mouse); experiment: radioligand binding to CHO cells transfected with mouse SSTR2, gamma counting
[3] = biological target: human somatostatin receptor SSTR1 (human); experiment: radioligand binding to CHO cells transfected with human SSTR1 in the presence of 1 µM somatostatin-14
[4] = biological target: mouse somatostatin receptor SSTR2 (mouse); experiment: radioligand binding to CHO cells transfected with mouse SSTR2 in the presence of 1 µM somatostatin-14

Substance: [125I]iodo-Tyr11-somatostatin-14 (from UniProt P61278) (peptide)
- control binding (radiolabeled ligand bound in the absence of inhibitor) [1]: 1420 cpm
- control binding (radiolabeled ligand bound in the absence of inhibitor) [2]: 2080 cpm
- non-specific binding (radiolabeled ligand bound in the presence of 1 µM somatostatin-14) [3]: 225 cpm
- non-specific binding (radiolabeled ligand bound in the presence of 1 µM somatostatin-14) [4]: 225 cpm

Source: patent US5723299
